One experiment concerns the target cell surface PD-L1 (human, UniProt Q9NZQ7 19-290). The experiment is described as follows: cell-based or functional assay.
The next experiment addresses T1, human PD-L1 monomer (human, UniProt Q9NZQ7 19-238, limits assumed).
T1 construct: Amine-coupled to the sensor chip; also called hPD-L1 monomer; hPD-L1
The experiment is described as follows: SPR (Biacore T200) at 20, 25, 37 and 42 °C, Fab as analyte over immobilised human PD-L1 monomer; van't Hoff analysis of the association phase. On the technique in general: SPR reads the build-up and loss of mass on a sensor chip optically.

cell surface PD-L1, sequence (Q9NZQ7 19-290 limits assumed): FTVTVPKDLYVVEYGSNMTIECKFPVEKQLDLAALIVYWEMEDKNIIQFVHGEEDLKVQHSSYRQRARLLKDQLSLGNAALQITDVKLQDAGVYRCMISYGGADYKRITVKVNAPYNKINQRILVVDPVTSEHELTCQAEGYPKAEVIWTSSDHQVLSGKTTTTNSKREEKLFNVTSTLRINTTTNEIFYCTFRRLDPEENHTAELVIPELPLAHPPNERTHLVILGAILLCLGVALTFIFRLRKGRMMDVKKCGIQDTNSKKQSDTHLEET
T1 sequence (Q9NZQ7 19-238 limits assumed): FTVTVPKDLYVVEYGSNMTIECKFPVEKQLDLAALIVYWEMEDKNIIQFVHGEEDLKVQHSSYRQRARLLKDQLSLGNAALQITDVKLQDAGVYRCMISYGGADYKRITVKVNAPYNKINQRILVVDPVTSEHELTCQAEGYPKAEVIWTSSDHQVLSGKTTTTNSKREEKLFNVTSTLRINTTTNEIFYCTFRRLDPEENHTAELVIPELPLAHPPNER
Experimental for human PD-L1 monomer: The sample gradients are prepared in the running buffer HBS-EP (0.01M HEPES pH 7.4, 0.15M NaCl, 3 mM EDTA, 0.005% v/v surfactant P20). The binding experiments are repeated at four different temperatures: 20° C., 25° C., 37° C. and 42° C. Throughout the kinetics experiments, the flow rate is maintained at 30 μl/min and the association/contact time at 180 sec for all three Fabs. […] After dissociation, a 0.75 M NaCl, 25 mM NaOH solution regenerates the immobilized hPD-L1, and then the surface is stabilized for 30 sec with the running buffer. […] The binding kinetics are analyzed using the Biacore T200 Evaluation software (Version 3.0). Data is referenced to a blank flow cell, and the data is fitted to the 1:1 Langmuir binding model.
Steady-state, association, and dissociation are the three binding phases analyzed. MATLAB is utilized for the linear regression analysis.

B1: Antibody A (antibody, human IgG1, lambda, V domains shown)
VH: QVQLVQSGAEVKKPGSSVKVSCKASGGTFSSYAISWVRQAPGQGLEWMGGIIPIFGTANYAQKFQGRVTITADKSTSTAYMELSSLRSEDTAVYYCARSPDYSPYYYYGMDVWGQGTTVTVSS
VL: QSVLTQPPSASGTPGQRVTISCSGSSSNIGSNTVNWYQQLPGTAPKLLIYGNSNRPSGVPDRFSGSKSGTSASLAISGLQSEDEADYYCQSYDSSLSGSVFGGGIKLTVLG
Take B1: in the experiment with cell surface PD-L1, the “IFN-γ secretion fold change vs. IgG control, mixed lymphocyte reaction, 0.01 nM antibody” value is 1.25 fold; the “IFN-γ secretion fold change vs. IgG control, mixed lymphocyte reaction, 0.05 nM antibody” value came out at 1.95 fold; the “IFN-γ secretion fold change vs. IgG control, mixed lymphocyte reaction, 0.27 nM antibody” value is 2.68 fold; the “IFN-γ secretion fold change vs. IgG control, mixed lymphocyte reaction, 1.3 nM antibody” value stood at 4.13 fold. Moreover, in the experiment with cell surface PD-L1, the “IFN-γ secretion fold change vs. IgG control, mixed lymphocyte reaction, 6.7 nM antibody” value amounted to 4.11 fold and the “IFN-γ secretion fold change vs. IgG control, mixed lymphocyte reaction, 33.3 nM antibody” value is 5.71 fold.

B2: Antibody A-Fab (Fab, V domains shown)
VH: QVQLVQSGAEVKKPGSSVKVSCKASGGTFSSYAISWVRQAPGQGLEWMGGIIPIFGTANYAQKFQGRVTITADKSTSTAYMELSSLRSEDTAVYYCARSPDYSPYYYYGMDVWGQGTTVTVSS
VL: QSVLTQPPSASGTPGQRVTISCSGSSSNIGSNTVNWYQQLPGTAPKLLIYGNSNRPSGVPDRFSGSKSGTSASLAISGLQSEDEADYYCQSYDSSLSGSVFGGGIKLTVLG
notes: CH1 and the lambda constant domain are not specified for the Fab; also called Fab of Antibody A
B2 yielded a ΔSon with human PD-L1 monomer of -26.

For the origin of these results see patent publication US20190144544A1 (Eli Lilly, published 2019).
